Laboratory results published in patent US20110104179A1.

Assays:
Experiment in all cases: cell-based or functional assay
[1] = target: Arg-gingipains of P. gingivalis ATCC 33277 whole cells (Porphyromonas gingivalis ATCC 33277)
[2] = target: Arg- and Lys-specific proteinases of P. gingivalis ATCC 33277 whole cells (DQ BSA assay) (Porphyromonas gingivalis ATCC 33277)
[3] = target: Lys-gingipain (Kgp) of P. gingivalis ATCC 33277 whole cells (Porphyromonas gingivalis ATCC 33277) (UniProt B2RLK2)

In the case of κ-casein(127-137) (peptide), the Arg-Specific Activity (%), ATCC 33277 whole cells, BApNA, peptide 200 µM [1] is reported as 102%, the Arg-Specific Activity (%), ATCC 33277 whole cells, BApNA, peptide 500 µM [1] is reported as 97% and the Arg-Specific Activity (%), ATCC 33277 whole cells, BApNA, peptide 1000 µM [1] is reported as 82%.
Work on “κ-casein(106-137) (from UniProt P02668 127-158) (peptide)” yielded an inhibition of protease activity in the fluorescence assay (DQ Green BSA), whole ATCC 33277 cells, peptide 500 µM [2] of 37 % inhibition.
With “Non-glycosylated κ-casein(106-169) (from UniProt P02668 127-190) (peptide)” the inhibition of proteinase activity against fluorescent BSA (DQ Green BSA), whole ATCC 33277 cells, peptide 500 µM [2] was 60 % inhibition.
κ-casein(117-123) (peptide) was tested, and the Arg-Specific Activity (%), ATCC 33277 whole cells, BApNA, peptide 200 µM [1] was 111%, the Arg-Specific Activity (%), ATCC 33277 whole cells, BApNA, peptide 500 µM [1] was 90% and the Arg-Specific Activity (%), ATCC 33277 whole cells, BApNA, peptide 1000 µM [1] was 92%.
β-casein(193-209) (peptide) was tested, and the Protease activity (%), Lys assay, ATCC 33277 whole cell, peptide 100 µM [3] was 71%, the Protease activity (%), Lys assay, ATCC 33277 whole cell, peptide 200 µM [3] was 59% and the Protease activity (%), Lys assay, ATCC 33277 whole cell, peptide 300 µM [3] was 49%. For the same substance, the inhibition in the Lys-specific protease assays, whole cells, peptide: ZnCl2 mixture [3] was 90 % inhibition, the Activity with ATCC33277, Arg-gingipains, peptide 100 µM alone (no inhibitor 29.23 + 0.06) [1] was 20 and the Protease activity (%), Arg assay, ATCC 33277 whole cell, peptide 100 µM [1] was 69%. The Protease activity (%), Arg assay, ATCC 33277 whole cell, peptide 200 µM [1] was 50%, the Protease activity (%), Arg assay, ATCC 33277 whole cell, peptide 300 µM [1] was 50% and the inhibition of Arg-specific proteolytic activity, whole cells, peptide 100 µM alone [1] was 30 % inhibition. The inhibition of Arg-specific proteolytic activity, whole cells, peptide and ZnCl2 in a 1:4 ratio [1] was 70 % inhibition.
β-casein(193-205) (peptide) gave an inhibition of whole cell Arg-specific proteolytic activity, peptide 200 µM [1] of 15 % inhibition.
Substance αS1-casein(11-23) (peptide) has a Protease activity (%), Lys assay, ATCC 33277 whole cell, peptide 100 µM [3] of 64%, a Protease activity (%), Lys assay, ATCC 33277 whole cell, peptide 200 µM [3] of 43% and a Protease activity (%), Lys assay, ATCC 33277 whole cell, peptide 300 µM [3] of 34%. It also gave an inhibition in the Lys-specific protease assays, whole cells, inhibitor mixture with ZnCl2 [3] of 85 % inhibition, an Activity with ATCC33277, Arg-gingipains, peptide 100 µM alone (no inhibitor 29.23 + 0.06) [1] of 18 and a Protease activity (%), Arg assay, ATCC 33277 whole cell, peptide 100 µM [1] of 62%. The Protease activity (%), Arg assay, ATCC 33277 whole cell, peptide 200 µM [1] was 39%, the Protease activity (%), Arg assay, ATCC 33277 whole cell, peptide 300 µM [1] was 38% and the inhibition of Arg-specific proteolytic activity, whole cells, peptide 100 µM alone [1] was 40 % inhibition. The inhibition of Arg-specific proteolytic activity, whole cells, peptide and ZnCl2 in a 1:4 ratio [1] was 70 % inhibition.
In the case of “κ-casein(109-137) (peptide; modification not given)”, the Protease activity (%), Arg assay, ATCC 33277 whole cell, peptide 50 µM [1] is reported as 84% and the Protease activity (%), Arg assay, ATCC 33277 whole cell, peptide 100 µM [1] is reported as 36%.
